Test [1] has as its target ZAP-70 tSH2 WT (1–256). The test can be described thus: stopped-flow fluorescence; pre-steady-state tryptophan fluorescence, 10 °C; 100 nM tSH2 domain mixed with 30 μM ITAM peptide in 20 mM Tris pH 8.0, 150 mM NaCl, 5% glycerol, 5 mM β-mercaptoethanol; 1 s (fast) and 200 s (slow) transients; observed rates from one-site association fit.
Test [2] concerns the target ZAP-70 tSH2 R39A. The test is described as follows: other fluorescence titration; steady-state intrinsic tryptophan fluorescence, 25 °C; 0.5 μM tSH2 domain titrated with ITAM peptide; excitation 295 nm, emission 300-400 nm; Hill equation fit.
The target in test [3] is ZAP-70 tSH2 F117A. The test is described as follows: stopped-flow fluorescence; pre-steady-state tryptophan fluorescence, 10 °C; 100 nM tSH2 domain mixed with 30 μM ITAM peptide in 20 mM Tris pH 8.0, 150 mM NaCl, 5% glycerol, 5 mM β-mercaptoethanol; 1 s (fast) and 200 s (slow) transients; observed rates from one-site association fit.
Test [4] deals with ZAP-70 tSH2 R192A. Described as above.
The target in test [5] is ZAP-70 tSH2 R39A. The test is described as above.
Test [6] addresses ZAP-70 tSH2 R43P. The test is described as above.
The target in test [7] is ZAP-70 tSH2 WT (1–256). The test can be described thus: other fluorescence titration; steady-state intrinsic tryptophan fluorescence, 25 °C; 0.5 μM tSH2 domain titrated with ITAM peptide; excitation 295 nm, emission 300-400 nm; Hill equation fit.
For test [8], the target named is ZAP-70 tandem SH2 domain R192A (1-256). The test can be described thus: ITC; Malvern PEAQ-ITC, 20 °C; C-SH2 mutant tSH2 (R192A, printed R190A in the methods) in 20 mM Hepes pH 8.2, 150 mM NaCl, 5 mM β-mercaptoethanol; titrated with 300 μM peptide; one-site binding model; constant printed under the column Kd2.

pKd: −log10 of the molar value.

As to ITAM-Y2P-ζ1 E13A (peptide), in test [1], the kobs fast worked out at 24.4 s⁻¹ and the kobs slow is 0.022 s⁻¹.

On to “doubly phosphorylated ITAM-ζ1 peptide (ITAM-Y2P-ζ1) (from UniProt P20963 61-89)”, for which the Kd1 in test [2] is 8 nM. For the same substance, the kobs fast in test [3] worked out at 21.8 s⁻¹; in test [5] it was 24.8 s⁻¹; in test [6], 28 s⁻¹; in test [1], 23.9 s⁻¹. The kobs slow in test [3] was 0.0517 s⁻¹; in test [4], 0.006 s⁻¹; in test [6], 2.25 s⁻¹; in test [1], 0.262 s⁻¹.

The substance “doubly phosphorylated ITAM-ζ3 peptide (ITAM-Y2P-ζ3) (from UniProt P20963 131-159)” gave a Kd1 in test [7] of 6.8 nM. In test [1], this substance registered a kobs fast of 21.4 s⁻¹ and a kobs slow of 0.012 s⁻¹.

Regarding “doubly-phosphorylated ITAM-ζ1 peptide with E13A”, the negative logarithm of the Kd (pKd) in test [8] was 5.01.

“single phosphotyrosine ITAM-ζ1 peptide (ITAM-YP-ζ1) (from UniProt P20963 61-89)” showed a Kd1 in test [7] of 3.7 nM. This substance showed a kobs fast in test [1] of 28.6 s⁻¹.

The record behind these values is publication PMC9486129, “An evolutionary divergent thermodynamic brake in ZAP-70 fine-tunes the kinetic proofreading in T cells” (The Journal of Biological Chemistry, 2022).
